Source: US20190169232A1 (FEINSTEIN INSTITUTES FOR MEDICAL RESEARCH, published 2019)

How the values were obtained:
RAGE on human monocytes = biological target: T1, RAGE on human monocytes (human, UniProt Q15109 23-404); assay: proximity ligation assay on human monocytes, condition without C1q
T1 construct: whole, on cells

[1] = biological target: T2, Human recombinant RAGE (hrRAGE), soluble RAGE (human, UniProt Q15109 24-344, limits assumed); assay: SPR (data not shown)
T2 construct: Called soluble RAGE (sRAGE) in the SPR and bead experiments; also called sRAGE; Receptor for Advanced Glycation Endproducts

[2] = biological target: T3, C1q purified from pooled normal human sera (human, UniProt P02746 28-253; P02747 29-245); assay: SPR kinetics, C1q immobilised on a CM5 chip, HMGB1 redox form as analyte in a concentration series, 1:1 fit
T3 construct: mature; Bought from Complement Technology, purified from serum; It names no B or C chains; Biotinylated for the bead assay; also called human C1q; first component of complement
Procedure: A 1:1 mixture of N-hyrdoxysuccinimide and N-ethyl-N-(dimethyaminopropyl) carbodiimide was used to activate 2 flow-cells of the CM5 chip. […] The analyte (HMGB1) was diluted in 1× HBS-N+0.05% tween-20 buffer (filtered—0.22 um). Three redox states of HMGB1 were sequentially injected at a flow rate of 20 μl/min for 60 s at 25° C., the dissociation time was set for 3 minutes. […]

[3] = biological target: T3, C1q purified from pooled normal human …; assay: SPR (BIAcore T200), HMGB1 immobilized on a CM5 chip, C1q as analyte at 5 concentrations, 1:1 fit
Procedure: Surface Plasmon Resonance analysis (SPR): For real-time binding interaction studies, a BIAcore T200 instrument (GE Healthcare) was used. […] A 1:1 mixture of N-hydroxysuccinimide and N-ethyl-N-(dimethyaminopropyl) carbodiimide was used to activate 2 flow-cells of the CM5 chip. […] The analytes were diluted in 1× PBS+0.01% (vol/vol) tween-20 buffer. The analytes were sequentially injected at a flow rate of 30 μl/min for 60 s at 25° C. The KD was determined using the BIAcore evaluation software 2.0 (GE Healthcare) supposing a 1:1 binding ratio.

T3 sequence (P02746 28-253, chain 2 of 2): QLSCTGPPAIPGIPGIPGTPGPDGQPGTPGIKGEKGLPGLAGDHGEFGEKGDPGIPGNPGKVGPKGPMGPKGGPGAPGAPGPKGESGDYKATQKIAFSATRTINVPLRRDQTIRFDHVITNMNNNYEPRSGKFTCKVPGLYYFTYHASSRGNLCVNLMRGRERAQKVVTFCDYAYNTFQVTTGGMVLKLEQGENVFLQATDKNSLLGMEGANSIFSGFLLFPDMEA
T3 sequence (P02747 29-245, chain 3 of 2): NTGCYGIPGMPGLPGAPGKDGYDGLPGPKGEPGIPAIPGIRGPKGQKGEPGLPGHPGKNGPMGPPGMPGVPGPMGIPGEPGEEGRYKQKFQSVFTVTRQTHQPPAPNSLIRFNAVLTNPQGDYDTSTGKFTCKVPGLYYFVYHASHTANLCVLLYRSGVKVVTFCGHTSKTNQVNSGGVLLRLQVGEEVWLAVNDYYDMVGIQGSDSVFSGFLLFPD
T2 sequence (Q15109 24-344 limits assumed): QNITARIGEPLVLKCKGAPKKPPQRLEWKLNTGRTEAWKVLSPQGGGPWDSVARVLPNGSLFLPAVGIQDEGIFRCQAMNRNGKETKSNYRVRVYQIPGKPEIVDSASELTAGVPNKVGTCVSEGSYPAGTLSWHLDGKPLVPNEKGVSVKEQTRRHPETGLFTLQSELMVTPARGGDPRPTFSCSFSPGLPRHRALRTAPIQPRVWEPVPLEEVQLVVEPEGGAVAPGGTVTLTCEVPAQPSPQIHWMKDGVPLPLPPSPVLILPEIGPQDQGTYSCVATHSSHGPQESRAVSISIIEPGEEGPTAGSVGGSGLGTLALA
T1 sequence (Q15109 23-404): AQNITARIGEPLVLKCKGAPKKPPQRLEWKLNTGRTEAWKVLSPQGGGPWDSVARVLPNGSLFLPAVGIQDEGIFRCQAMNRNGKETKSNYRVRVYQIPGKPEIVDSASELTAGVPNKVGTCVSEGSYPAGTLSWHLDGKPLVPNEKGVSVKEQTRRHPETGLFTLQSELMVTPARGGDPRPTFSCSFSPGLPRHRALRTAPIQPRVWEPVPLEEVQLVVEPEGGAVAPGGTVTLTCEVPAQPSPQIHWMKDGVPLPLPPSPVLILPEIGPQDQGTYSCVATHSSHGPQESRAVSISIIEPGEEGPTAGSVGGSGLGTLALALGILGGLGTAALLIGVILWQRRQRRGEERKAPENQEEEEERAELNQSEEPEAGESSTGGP

B1: LAIR-1 on human monocytes (receptor, UniProt Q6GTX8 22-287, looked up)
chain: QEEDLPRPSISAEPGTVIPLGSHVTFVCRGPVGVQTFRLERDSRSTYNDTEDVSQASPSESEARFRIDSVREGNAGLYRCIYYKPPKWSEQSDYLELLVKESSGGPDSPDTEPGSSAGPTQRPSDNSHNEHAPASQGLKAEHLYILIGVSVVFLFCLLLLVLFCLHRQNQIKQGPPRSKDEEQKPQQRPDLAVDVLERTADKATVNGLPEKDRETDTSALAAGSSQEVTYAQLDHWALTQRTARAVSPQSTKPMAESITYAAVARH
notes: whole, on cells; also called Leukocyte-Associated Ig-like Receptor 1; CD305
**Q.** Does B1 bind (RAGE on human monocytes)?
**A.** no binding

B2: C1q tail (C1q collagen-like tail) purified from whole C1q (other)
chain 1: EDLCRAPDGKKGEAGRPGRRGRPGLKGEQGEPGAPGIRTGIQGLKGDQGEPGPSGNPGKVGYPGPSGPLGARGIPGIKGTKGSPGNI
chain 2: not shown
chain 3: not shown
notes: domain: collagen-like tail; Fragment prepared from whole serum C1q 'as previous described (22)'; also called C1q collagen tail
**Q.** Does B2 bind [1]?
**A.** no binding

B3: Disulfide HMGB1 (ligand, UniProt P09429 1-215, looked up)
chain: MGKGDPKKPRGKMSSYAFFVQTCREEHKKKHPDASVNFSEFSKKCSERWKTMSAKEKGKFEDMAKADKARYEREMKTYIPPKGETKKKFKDPNAPKRPPSAFFLFCSEYRPKIKGEHPGLSIGDVAKKLGEMWNNTAADDKQPYEKKAAKLKEKYEKDIAAYRAKGKPDAAKKGVVKAEKSKKKKEEEEDEEDEEDEEEEEDEEDEDEEEDDDDE
modifications: disulfide bond between C23 and C45, with a free cysteine at C106
notes: also called disulfide form of HMGB1
**Q.** How did the Kd [2] turn out when B3 was run?
**A.** 210 nM

B4: All-thiol HMGB1 (ligand, not shown: small tags and cut ends)
chain: MGKGDPKKPRGKMSSYAFFVQTCREEHKKKHPDASVNFSEFSKKCSERWKTMSAKEKGKFEDMAKADKARYEREMKTYIPPKGETKKKFKDPNAPKRPPSAFFLFCSEYRPKIKGEHPGLSIGDVAKKLGEMWNNTAADDKQPYEKKAAKLKEKYEKDIAAYRAKGKPDAAKKGVVKAEKSKKKKEEEEDEEDEEDEEEEEDEEDEDEEEDDDDE
modifications: All-thiol form: C23, C45 and C106 all stand as free reduced thiols, with no C23-C45 disulfide. The letters are unchanged.
notes: Analyte in the SPR assays on immobilised C1q; also called reduced HMGB1
**Q.** Which Kd [2] does the source give for B4 here?
**A.** 1060 nM

B5: Recombinant HMGB1 (Calmodulin Binding Protein Epitope, Cbp tagged) (ligand, human, UniProt P09429 1-215, looked up, not shown: small tags and cut ends)
chain: MGKGDPKKPRGKMSSYAFFVQTCREEHKKKHPDASVNFSEFSKKCSERWKTMSAKEKGKFEDMAKADKARYEREMKTYIPPKGETKKKFKDPNAPKRPPSAFFLFCSEYRPKIKGEHPGLSIGDVAKKLGEMWNNTAADDKQPYEKKAAKLKEKYEKDIAAYRAKGKPDAAKKGVVKAEKSKKKKEEEEDEEDEEDEEEEEDEEDEDEEEDDDDE
notes: also called High Mobility Group Box 1
**Q.** With B5 as the binder, how does the Kd [3] read?
**A.** 200 nM
